Molecular target: rHA1_(1-326), recombinant hemagglutinin HA1 fragment (residues 1-326) of influenza A virus H1N1 strain A/California/04/2009 (influenza A virus subtype H1N1 strain A/California/04/2009)
Experiment: SEC

rHA1_(1-326), recombinant hemagglutinin HA1 fragment (residues 1-326) of influenza A virus H1N1 strain A/California/04/2009 (domain or fragment)
percent of the protein as dimers and trimers: 70.5%
